# Patent publication US6670183B2, “88kDa tumorigenic growth factor and antagonists” (A & G Pharmaceutical, Inc., priority 1997, dated 2003)
# Like-named read-outs stand apart in the source and are kept apart here.
# B1: rGP88: recombinant mouse GP88 expressed in baculovirus infected Sf9 insect cells; iodinated as binding ligand (protein)
# chain: TQCPDGQFCPVACCLDQGGANYSCCNPLLDTWPRITSHHLDGSCQTHGHCPAGYSCLLTVSGTSSCCPFSKGVSCGDGYHCCPQGFHCSADGKSCFQMSDNPLGAVQCPGSQFECPDSATCCIMVDGSWGCCPMPQASCCEDRVHCCPHGASCDLVHTRCVSPTGTHTLLKKFPAQKTNSAVSLPFSVVCPDAKTQCPDDSTCCELPTGKYGCCPMPNAICCSDHLHCCPQDTVCDLIQSKCLSKNYTTDLLTKLPGYPVKEVKCDMEVSCPEGYTCCRLNTGAWGCCPFAKAVCCDDHIHCCPAGFQCHTEKGTCEMGILQVGWMKKVIAPLRLPDPQILKSDTPCDDFTRCPTNNTCCKLNSGDWGCCPIPEAVCCSDNQHCCPQGFTCLAQGYCQKGDTMVAGLEKIPARQTTPLQIGDIGCDQHTSCPVGQTCCPSLKGSWACCQLPHAVCCEDRQHCCPAGYTCNVKARTCEKDVDFIQPPVLLTLGPKVGNVECGEGHFCHDNQTCCKDSAGVWACCPYLKGVCCRDGRHCCPGGFHCSARGTKCLRKKIPRWDMFLRDPVPRPLL
# Columns and labels:
# [1] = tested on: GP88 cell surface receptors on CCL64 cells; assay: ^125I-GP88 binding to CCL64 cells, Scatchard analysis; set-up: species or system mink; details: 2 hours at 25° C.
# Method: Recombinant GP88 (rGP88) was iodinated by the chloramine T method at 4° C. Other known methods can also be applied. Briefly, 1 μg of GP88 was incubated for 2 min with ^125I Na (100 μCi) that had been preincubated for 90 seconds with 2 μg chloramine T. The reaction was quenched with the addition of 100 μl saturated tyrosine, 10 μl of a 1% solution of bovine serum albumin (BSA) and 2 μg of sodium metabisulfite. After addition of 100 μl PBS, the iodinated protein was separated from free Na^125I by gel filtration on a Sephadex-G50 column that had been preincubated with PBS containing 1% bovine serum albumin and then extensively washed with PBS to reduce non-specific binding. The labeled proteins were eluted with PBS and fractions monitored for radioactivity. Amount of incorporated radioactivity was estimated by TCA precipitation. Specific activity of ^125I-GP88 was typically 30-50 μCi/μg. […]
# The example provided here describes binding assay with the mink lung epithelial cell line CCL64 but has also been applied to several cell lines including the 1246, PC cell lines and the mammary epithelial cell line C57MG. […] The cells were harvested by centrifugation, washed with culture medium and counted with a hemocytometer. […] Cell pellets were counted with a gamma counter. […]
# [2] = tested on: mouse mammary epithelial cell line C57MG; assay: DNA synthesis (^3H-thymidine incorporation) in serum-starved C57MG cells; format: cell-based
# Method: We investigated the effect of GP88 on the proliferation of a variety of cell lines including fibroblasts and mammary epithelial cells.
# The ability of GP88 purified from PC cells (upper panel) and recombinant GP88, rGP88 (lower panel), to stimulate DNA synthesis in C57MG cells was measured by incorporation of ^3H-thymidine in serum-starved quiescent cells.
molecule,measurement,setting,value
B1,Kd,"[1]; read-out: Kd, high affinity class of receptors",0.043 nM
same,Kd,"[1]; read-out: Kd, low affinity class of receptors",3.9 nM
same,increase in DNA synthesis,[2]; 150 ng/ml (2 nM),5 fold
same,biological activity compared with PC cell derived GP88,[2]; FIG. 6,identical to that of GP88 purified from PC cells
